According to paper PMC9058210 (Nature chemical biology, 2022):

Target: the molecule itself
Experiment: crystal structure

B1: SalC (enzyme, Salinispora tropica CNB440)
chain: MSEAVERNYDPGDVAIIGASCRFPGARNKEQYWDNLLHGREGVTFYAKDEIEVDETLINSPAYVRATGALDGYDEFDPAVFGVSDRMAAAMTPEHRVFLEASWEVMEDASYDPERVRGEVGVYASTNPQSAALYSSPPDWVSAGPEVMDRSNAWLPDTITSNVLYYLGLTGEAVTVTAVCSGFHYAVHLACQSLLLGQTDMAIAGGVMVRLPQRRGYLWEEGRILSRDGHCRPFDANGTGSVLASGVAVVLLKPLPQAVADRDHIYATVKGTAINNNGISAMAYGLAQPERLSACIAGAMQAGDVAPETVSMYEANGFGMPITDSLEVHAAHLAFGKQSGTCSIGAVKGNIGHAGVVAGGSGAVKAAFALYHRSLPPTINLTELNEEIDFPRTPFVPQLEPAAWQPECGIRRAGITALGGGGYNAHLVLEEPPRPVEREPENRRPRIVTLSALDDAAVSRQRAALSSWLAEHSDARLDDIAYSLNLGRKALPSRWAAVISTRDELLEVLSGDGKSGRVSRFGQERRADLARFRRTEDGLALGSGDEMRDVQALTELAAAWVQGERVNFEVLHADERSHRISLPNYPFARRRFWRTDW
For B1, the “stoichiometry N” value was 4.
